# Test results reported in patent US20120045819A1 (published 2012).
# Positions of bridges follow the written chain, without caps; N, C: chain ends. No end group written: not given here. *: point of attachment. NHNH2 = NN*
# T1: native human factor VIII (nhfVIII) (human, UniProt P00451 20-2351)
# T1 chain 1: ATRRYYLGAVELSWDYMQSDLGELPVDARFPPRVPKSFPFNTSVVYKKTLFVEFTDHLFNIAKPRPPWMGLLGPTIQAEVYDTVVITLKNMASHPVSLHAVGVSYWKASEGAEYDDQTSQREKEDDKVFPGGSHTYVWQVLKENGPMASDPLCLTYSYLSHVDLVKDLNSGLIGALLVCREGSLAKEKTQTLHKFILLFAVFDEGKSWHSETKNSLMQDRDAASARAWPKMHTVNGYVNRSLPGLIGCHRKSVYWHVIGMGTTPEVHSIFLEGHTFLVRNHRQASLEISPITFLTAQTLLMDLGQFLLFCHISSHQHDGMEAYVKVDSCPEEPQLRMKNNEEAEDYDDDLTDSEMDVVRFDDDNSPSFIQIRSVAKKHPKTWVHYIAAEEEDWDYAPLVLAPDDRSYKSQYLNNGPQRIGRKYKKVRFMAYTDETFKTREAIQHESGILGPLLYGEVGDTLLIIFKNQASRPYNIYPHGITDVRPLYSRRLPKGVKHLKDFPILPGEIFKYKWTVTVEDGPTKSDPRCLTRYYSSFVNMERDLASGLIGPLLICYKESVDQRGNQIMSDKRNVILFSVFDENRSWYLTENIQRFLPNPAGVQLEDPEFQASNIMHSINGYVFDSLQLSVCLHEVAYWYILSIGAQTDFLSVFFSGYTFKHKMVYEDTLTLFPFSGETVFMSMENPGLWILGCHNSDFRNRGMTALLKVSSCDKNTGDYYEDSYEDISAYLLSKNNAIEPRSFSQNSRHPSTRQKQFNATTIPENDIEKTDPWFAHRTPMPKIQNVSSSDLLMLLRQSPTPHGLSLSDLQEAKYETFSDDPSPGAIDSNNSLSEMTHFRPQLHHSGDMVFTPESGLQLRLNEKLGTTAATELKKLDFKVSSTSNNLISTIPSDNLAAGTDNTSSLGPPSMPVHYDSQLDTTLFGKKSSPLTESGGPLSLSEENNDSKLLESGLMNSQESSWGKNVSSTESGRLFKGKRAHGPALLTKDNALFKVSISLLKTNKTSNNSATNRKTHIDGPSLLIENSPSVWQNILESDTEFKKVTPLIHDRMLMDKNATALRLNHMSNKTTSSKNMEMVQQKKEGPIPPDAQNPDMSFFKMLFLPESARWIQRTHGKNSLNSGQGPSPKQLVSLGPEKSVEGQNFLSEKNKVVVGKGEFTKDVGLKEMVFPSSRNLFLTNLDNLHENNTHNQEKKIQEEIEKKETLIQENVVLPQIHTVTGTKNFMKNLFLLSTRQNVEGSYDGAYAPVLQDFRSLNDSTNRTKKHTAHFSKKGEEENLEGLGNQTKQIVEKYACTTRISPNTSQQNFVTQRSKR
# T1 chain 2: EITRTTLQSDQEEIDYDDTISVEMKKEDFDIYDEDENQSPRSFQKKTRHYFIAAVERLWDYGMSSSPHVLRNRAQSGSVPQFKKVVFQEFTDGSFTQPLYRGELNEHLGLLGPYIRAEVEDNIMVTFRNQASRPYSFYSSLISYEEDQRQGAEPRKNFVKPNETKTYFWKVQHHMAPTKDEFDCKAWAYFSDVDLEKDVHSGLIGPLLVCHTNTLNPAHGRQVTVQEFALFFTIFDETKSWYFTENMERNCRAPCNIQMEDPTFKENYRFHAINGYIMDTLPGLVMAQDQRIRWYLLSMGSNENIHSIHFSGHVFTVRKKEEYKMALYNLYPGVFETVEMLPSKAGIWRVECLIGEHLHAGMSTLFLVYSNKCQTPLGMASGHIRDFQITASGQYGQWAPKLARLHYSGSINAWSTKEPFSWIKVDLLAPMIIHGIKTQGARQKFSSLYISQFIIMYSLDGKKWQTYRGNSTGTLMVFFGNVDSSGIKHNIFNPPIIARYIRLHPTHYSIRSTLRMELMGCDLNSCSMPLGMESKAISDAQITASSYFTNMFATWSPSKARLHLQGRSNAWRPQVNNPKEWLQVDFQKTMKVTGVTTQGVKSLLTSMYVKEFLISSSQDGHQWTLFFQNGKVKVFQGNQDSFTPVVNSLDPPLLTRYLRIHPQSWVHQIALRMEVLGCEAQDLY
# B1: CS-458 (AEGTGDFCWVFAFDHCHDPGPEGGGS-NHNH2) (peptide)
# peptide: AEGTGDFCWVFAFDHCHDPGPEGGGS-NHNH2
# modifications: disulfide 8-16
# notes: synthetic peptide immobilized on Toyopearl Formyl 650-M resin by hydrazone bond
# B2: CS-454 (AEGTGDHLCGAWFRPCDADPGPEGGGS-NHNH2) (peptide)
# peptide: AEGTGDHLCGAWFRPCDADPGPEGGGS-NHNH2
# modifications: disulfide 9-16
# notes: as for B1
# B3: CS-456 (AEGTGDFGCSWLFPCPFDPGPEGGGS-NHNH2) (peptide)
# peptide: AEGTGDFGCSWLFPCPFDPGPEGGGS-NHNH2
# modifications: disulfide 9-15
# notes: as for B1
# Target: T1, native human factor VIII (nhfVIII)
# Test: batch binding to peptide beads; fractions by sandwich ELISA; % of total recovered
Binder,% of total recovered in Eluate [%],% of total recovered in Unbound [%],% of total recovered in Wash [%]
B1,39,48,13
B2,21,67,12
B3,16,70,14
